{
  "source": "paper doi:10.1101/2022.03.10.483744",
  "about": "(bioRxiv, 2022)",
  "key": {"[1]": {"molecular_target": "CLPB-NBD^E425Q (human) (UniProt Q9H078)", "assay": "cryo-EM structure"}, "[2]": {"molecular_target": "CLPB^isoform1 (human)", "assay": "cryo-EM 2D classification"}, "[3]": {"molecular_target": "CLPB-NBD (NBD-only variant, N-terminal ANK domain truncated) (human) (UniProt Q9H078)", "assay": "cryo-EM 2D classification"}, "[4]": {"molecular_target": "the molecule itself", "assay": "cryo-EM structure"}, "[5]": {"molecular_target": "the molecule itself", "assay": "SEC + other: negative-staining EM"}, "[6]": {"molecular_target": "the molecule itself", "assay": "SEC"}},
  "note": "“And” between values parts separate entries of the source, which are not always exact repeats. Identical values can stand only once.",
  "data": [
    {"molecule": "CLPB-NBD^E425Q (from UniProt Q9H078-2 1-677) (domain or fragment)", "values": [
      {"measurement": "stoichiometry N", "setting": "[1]", "value": "6 and 7 and 9"}
    ]},
    {"molecule": "CLPB^isoform1 (natural protein)", "values": [
      {"measurement": "stoichiometry N", "setting": "[2]", "value": 14}
    ]},
    {"molecule": "CLPB-NBD (NBD-only variant, N-terminal ANK domain truncated) (from UniProt Q9H078-2 1-677) (domain or fragment)", "values": [
      {"measurement": "stoichiometry N", "setting": "[3]", "value": "6 and 7"}
    ]},
    {"molecule": "CLPB-N127 (human CLPB isoform 2 starting from the PARL cleavage site) (natural protein) YSKSPSNKDAALLEAARANNMQEVSRLLSEGADVNAKHRLGWTALMVAAINRNNSVVQVLLAAGADPNLGDDFSSVYKTAKEQGIHSLEVLITREDDFNNRLNNRASFKGCTALHYAVLADDYRTVKELLDGGANPLQRNEMGHTPLDYAREGEVMKLLRTSEAKYQEKQRKREAEERRRFPLEQRLKEHIIGQESAIATVGAAIRRKENGWYDEEHPLVFLFLGSSGIGKTELAKQTAKYMHKDAKKGFIRLDMSEFQERHEVAKFIGSPPGYVGHEEGGQLTKKLKQCPNAVVLFDEVDKAHPDVLTIMLQLFDEGRLTDGKGKTIDCKDAIFIMTSNVASDEIAQHALQLRQEALEMSRNRIAENLGDVQISDKITISKNFKENVIRPILKAHFRRDEFLGRINEIVYFLPFCHSELIQLVNKELNFWAKRAKQRHNITLLWDREVADVLVDGYNVHYGARSIKHEVERRVVNQLAAAYEQDLLPGGCTLRITVEDSDKQLLKSPELPSPQAEKRLPKLRLEIIDKDSKTRRLDIRAPLHPEKVCNTI", "values": [
      {"measurement": "stoichiometry N", "setting": "[4]", "value": 14}
    ]},
    {"molecule": "CLPB^E425Q (Walker B mutant of CLPB-N127) (natural protein) YSKSPSNKDAALLEAARANNMQEVSRLLSEGADVNAKHRLGWTALMVAAINRNNSVVQVLLAAGADPNLGDDFSSVYKTAKEQGIHSLEVLITREDDFNNRLNNRASFKGCTALHYAVLADDYRTVKELLDGGANPLQRNEMGHTPLDYAREGEVMKLLRTSEAKYQEKQRKREAEERRRFPLEQRLKEHIIGQESAIATVGAAIRRKENGWYDEEHPLVFLFLGSSGIGKTELAKQTAKYMHKDAKKGFIRLDMSEFQERHEVAKFIGSPPGYVGHEEGGQLTKKLKQCPNAVVLFDQVDKAHPDVLTIMLQLFDEGRLTDGKGKTIDCKDAIFIMTSNVASDEIAQHALQLRQEALEMSRNRIAENLGDVQISDKITISKNFKENVIRPILKAHFRRDEFLGRINEIVYFLPFCHSELIQLVNKELNFWAKRAKQRHNITLLWDREVADVLVDGYNVHYGARSIKHEVERRVVNQLAAAYEQDLLPGGCTLRITVEDSDKQLLKSPELPSPQAEKRLPKLRLEIIDKDSKTRRLDIRAPLHPEKVCNTI", "values": [
      {"measurement": "stoichiometry N", "setting": "[4]", "value": 12}
    ]},
    {"molecule": "CLPB^R227E (natural protein) YSKSPSNKDAALLEAARANNMQEVSRLLSEGADVNAKHRLGWTALMVAAINRNNSVVQVLLAAGADPNLGDDFSSVYKTAKEQGIHSLEVLITREDDFNNELNNRASFKGCTALHYAVLADDYRTVKELLDGGANPLQRNEMGHTPLDYAREGEVMKLLRTSEAKYQEKQRKREAEERRRFPLEQRLKEHIIGQESAIATVGAAIRRKENGWYDEEHPLVFLFLGSSGIGKTELAKQTAKYMHKDAKKGFIRLDMSEFQERHEVAKFIGSPPGYVGHEEGGQLTKKLKQCPNAVVLFDEVDKAHPDVLTIMLQLFDEGRLTDGKGKTIDCKDAIFIMTSNVASDEIAQHALQLRQEALEMSRNRIAENLGDVQISDKITISKNFKENVIRPILKAHFRRDEFLGRINEIVYFLPFCHSELIQLVNKELNFWAKRAKQRHNITLLWDREVADVLVDGYNVHYGARSIKHEVERRVVNQLAAAYEQDLLPGGCTLRITVEDSDKQLLKSPELPSPQAEKRLPKLRLEIIDKDSKTRRLDIRAPLHPEKVCNTI", "values": [
      {"measurement": "binding result", "setting": "[5]", "value": "binds"}
    ]},
    {"molecule": "CLPB^R178E (natural protein) YSKSPSNKDAALLEAARANNMQEVSRLLSEGADVNAKHRLGWTALMVAAINENNSVVQVLLAAGADPNLGDDFSSVYKTAKEQGIHSLEVLITREDDFNNRLNNRASFKGCTALHYAVLADDYRTVKELLDGGANPLQRNEMGHTPLDYAREGEVMKLLRTSEAKYQEKQRKREAEERRRFPLEQRLKEHIIGQESAIATVGAAIRRKENGWYDEEHPLVFLFLGSSGIGKTELAKQTAKYMHKDAKKGFIRLDMSEFQERHEVAKFIGSPPGYVGHEEGGQLTKKLKQCPNAVVLFDEVDKAHPDVLTIMLQLFDEGRLTDGKGKTIDCKDAIFIMTSNVASDEIAQHALQLRQEALEMSRNRIAENLGDVQISDKITISKNFKENVIRPILKAHFRRDEFLGRINEIVYFLPFCHSELIQLVNKELNFWAKRAKQRHNITLLWDREVADVLVDGYNVHYGARSIKHEVERRVVNQLAAAYEQDLLPGGCTLRITVEDSDKQLLKSPELPSPQAEKRLPKLRLEIIDKDSKTRRLDIRAPLHPEKVCNTI", "values": [
      {"measurement": "binding result", "setting": "[5]", "value": "binds"}
    ]},
    {"molecule": "CLPB^Δ201-232 (natural protein) YSKSPSNKDAALLEAARANNMQEVSRLLSEGADVNAKHRLGWTALMVAAINRNNSVVQVLLAAGADPNLGDDFSSFKGCTALHYAVLADDYRTVKELLDGGANPLQRNEMGHTPLDYAREGEVMKLLRTSEAKYQEKQRKREAEERRRFPLEQRLKEHIIGQESAIATVGAAIRRKENGWYDEEHPLVFLFLGSSGIGKTELAKQTAKYMHKDAKKGFIRLDMSEFQERHEVAKFIGSPPGYVGHEEGGQLTKKLKQCPNAVVLFDEVDKAHPDVLTIMLQLFDEGRLTDGKGKTIDCKDAIFIMTSNVASDEIAQHALQLRQEALEMSRNRIAENLGDVQISDKITISKNFKENVIRPILKAHFRRDEFLGRINEIVYFLPFCHSELIQLVNKELNFWAKRAKQRHNITLLWDREVADVLVDGYNVHYGARSIKHEVERRVVNQLAAAYEQDLLPGGCTLRITVEDSDKQLLKSPELPSPQAEKRLPKLRLEIIDKDSKTRRLDIRAPLHPEKVCNTI", "values": [
      {"measurement": "binding result", "setting": "[6]", "value": "binds"}
    ]}
  ]
}
